Target: the molecule itself
Test: cryo-EM structure; single-particle cryo-EM of purified TolQR complex at 7.5 mg/mL in SEC buffer (50 mM Tris/HCl pH 7.5, 300 mM NaCl, 2 mM EDTA, 0.01% LMNG); rigid-body refinement of a published model

B1: TolQ (natural protein, E. coli, UniProt P0ABU9 1-230, looked up)
chain: MTDMNILDLFLKASLLVKLIMLILIGFSIASWAIIIQRTRILNAAAREAEAFEDKFWSGIELSRLYQESQGKRDNLTGSEQIFYSGFKEFVRLHRANSHAPEAVVEGASRAMRISMNRELENLETHIPFLGTVGSISPYIGLFGTVWGIMHAFIALGAVKQATLQMVAPGIAEALIATAIGLFAAIPAVMAYNRLNQRVNKLELNYDNFMEEFTAILHRQAFTVSESNKG
notes: TolQ, E. coli, inner-membrane motor protein of the Tol system; expressed from pCEP13 (pT12-tolQ-tolR); Pentamer in the TolQR complex; also called TolQ pentamer; motor subunit of TolQR
- stoichiometry N: 5
